Test results taken from patent publication US20190040102A1 (CDRD VENTURES, published 2019).
Each block holds one binder with its values, some of them ahead of it. Positions of bridges follow the written chain, without caps; N, C: chain ends. Non-standard residues stand in square brackets, D forms with d. *: point of attachment. dPhe(4-CONH2) = NC(=O)c1ccc(C[C@@H](N)C(=O)O)cc1; Phe(4-Cl) = N[C@@H](Cc1ccc(Cl)cc1)C(=O)O; Nicotinoyl = O=C(c1cccnc1)*

How the values were obtained:
Experiment in all cases: cell-based or functional assay
[1] = target: somatostatin receptor type 2 (SSTR2) (UniProt P30874 1-369)
[2] = target: somatostatin receptor SSTR3 (UniProt P32745 1-418)
[3] = target: somatostatin receptor SSTR4 (UniProt P31391 1-388)
[4] = target: somatostatin receptor SSTR1 (UniProt P30872 1-391)
[5] = target: somatostatin receptor SSTR5 (UniProt P35346 1-364)
Chain of somatostatin receptor SSTR5 (P35346 whole entry): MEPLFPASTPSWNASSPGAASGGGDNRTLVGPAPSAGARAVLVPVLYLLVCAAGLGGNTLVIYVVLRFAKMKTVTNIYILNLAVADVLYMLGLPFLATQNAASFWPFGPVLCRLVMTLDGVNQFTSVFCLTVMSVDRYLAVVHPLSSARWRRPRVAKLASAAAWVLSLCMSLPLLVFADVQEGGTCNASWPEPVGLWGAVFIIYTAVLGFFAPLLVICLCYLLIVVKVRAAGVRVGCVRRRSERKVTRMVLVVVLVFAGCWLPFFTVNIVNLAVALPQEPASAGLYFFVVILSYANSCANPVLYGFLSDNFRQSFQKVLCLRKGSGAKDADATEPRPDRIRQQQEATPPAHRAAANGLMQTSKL

Chain of somatostatin receptor SSTR3 (P32745 whole entry): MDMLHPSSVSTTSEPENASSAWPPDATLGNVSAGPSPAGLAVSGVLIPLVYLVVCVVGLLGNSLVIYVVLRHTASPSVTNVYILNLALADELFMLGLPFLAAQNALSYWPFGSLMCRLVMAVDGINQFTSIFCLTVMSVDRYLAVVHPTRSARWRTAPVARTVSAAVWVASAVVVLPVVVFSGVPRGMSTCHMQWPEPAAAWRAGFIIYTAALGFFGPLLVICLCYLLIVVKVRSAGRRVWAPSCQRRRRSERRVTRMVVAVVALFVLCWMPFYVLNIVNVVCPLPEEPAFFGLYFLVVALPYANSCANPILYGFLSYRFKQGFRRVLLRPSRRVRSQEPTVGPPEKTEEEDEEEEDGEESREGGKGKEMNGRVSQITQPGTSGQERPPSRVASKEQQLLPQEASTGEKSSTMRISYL
Chain of somatostatin receptor SSTR4 (P31391 whole entry): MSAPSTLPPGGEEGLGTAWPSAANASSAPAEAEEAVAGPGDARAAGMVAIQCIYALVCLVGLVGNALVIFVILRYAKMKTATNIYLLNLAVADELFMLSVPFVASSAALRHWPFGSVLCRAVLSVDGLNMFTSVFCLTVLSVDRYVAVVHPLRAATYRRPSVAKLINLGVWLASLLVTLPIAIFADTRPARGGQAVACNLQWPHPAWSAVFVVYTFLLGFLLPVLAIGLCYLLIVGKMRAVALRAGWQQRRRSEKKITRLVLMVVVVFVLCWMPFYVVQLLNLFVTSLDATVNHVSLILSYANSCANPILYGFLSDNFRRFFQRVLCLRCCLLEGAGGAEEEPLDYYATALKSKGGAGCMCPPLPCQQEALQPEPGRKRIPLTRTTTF
Chain of somatostatin receptor SSTR1 (P30872 whole entry): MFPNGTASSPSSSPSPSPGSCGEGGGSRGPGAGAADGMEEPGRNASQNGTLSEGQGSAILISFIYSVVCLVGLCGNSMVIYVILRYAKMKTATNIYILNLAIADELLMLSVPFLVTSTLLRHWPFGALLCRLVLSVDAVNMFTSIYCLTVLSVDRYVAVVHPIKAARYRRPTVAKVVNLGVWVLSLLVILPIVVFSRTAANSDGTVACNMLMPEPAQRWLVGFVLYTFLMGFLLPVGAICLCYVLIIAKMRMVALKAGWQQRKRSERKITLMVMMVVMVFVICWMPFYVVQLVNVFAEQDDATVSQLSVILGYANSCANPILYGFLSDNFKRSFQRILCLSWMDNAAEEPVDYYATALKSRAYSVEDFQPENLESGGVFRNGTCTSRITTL
Chain of somatostatin receptor type 2 (SSTR2) (P30874 whole entry): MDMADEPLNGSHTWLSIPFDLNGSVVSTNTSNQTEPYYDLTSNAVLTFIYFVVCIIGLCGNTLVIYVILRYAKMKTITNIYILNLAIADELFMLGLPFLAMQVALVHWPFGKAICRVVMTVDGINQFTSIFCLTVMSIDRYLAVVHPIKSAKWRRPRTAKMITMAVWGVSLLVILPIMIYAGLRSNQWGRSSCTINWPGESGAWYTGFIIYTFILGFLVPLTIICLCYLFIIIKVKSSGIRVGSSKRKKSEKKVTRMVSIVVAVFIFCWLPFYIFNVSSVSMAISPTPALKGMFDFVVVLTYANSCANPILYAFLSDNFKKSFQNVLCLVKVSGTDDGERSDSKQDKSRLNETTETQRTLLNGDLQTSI

Binder: H-[Phe(4-Cl)][dC]Y[dAph(Cit)]KTC[dY]-NH2 (disulfide 2-7) [Compound 22: H-Cpa-cyclo[DCys-Tyr-D-4-(Cit)Aph-Lys-Thr-Cys]-DTyr-NH2]
- IC50 (PathHunter β-Arrestin, antagonist mode) [1]: 417 nM
- IC50 (PathHunter β-Arrestin, antagonist mode) [2]: > 1000 nM

Binder: {2‑(phenylsulfonyl)acetyl}-[Phe(4-Cl)][dC]Y[dPhe(4-CONH2)]K(Me)TC[dY]-NH2 (disulfide 2-7) [Compound 51: PhSO2CH2(CO)-Cpa-cyclo[D-Cys-Tyr-D-Phe(4-carbamoyl)-Lys(Nε-Me)-Thr-Cys]-D-Tyr-NH2]
- IC50 (PathHunter β-Arrestin, antagonist mode) [1]: 1.45 nM

Binder: succinamoyl-[Phe(4-Cl)][dC]Y[dPhe(4-CONH2)]K(Me)TC[dY]-NH2 (disulfide 2-7) [Compound 54: H2N(CO)(CH2)2(CO)-Cpa-cyclo[D-Cys-Tyr-D-Phe(4-carbamoyl)-Lys(Nε-Me)-Thr-Cys]-D-Tyr-NH2]
- IC50 (PathHunter β-Arrestin, antagonist mode) [1]: 2.33 nM

Binder: H-[Phe(4-Cl)][dC]Y[dAph(Asp)]KTC[dY]-NH2 (disulfide 2-7) [Compound 18: H-Cpa-cyclo[DCys-Tyr-D-4-(Asp)Aph-Lys-Thr-Cys]-DTyr-NH2]
- IC50 (PathHunter β-Arrestin, antagonist mode) [1]: > 1000 nM
- IC50 (PathHunter β-Arrestin, antagonist mode) [2]: > 1000 nM

B3: Compound 1: H-Cpa-cyclo[D-Cys-Tyr-D-Cit-Lys-Thr-Cys]-D-Tyr-NH2 (peptide)
peptide: XXYXKTCX
HELM: PEPTIDE1{[N[C@@H](Cc1ccc(Cl)cc1)C(=O)[*:2]].[dC].Y.[NC(=O)NCCC[C@@H](N[*:1])C(=O)[*:2]].K.T.C.[dY].[am]}$PEPTIDE1,PEPTIDE1,2:R3-7:R3$$$V2.0
SMILES: C[C@@H](O)[C@@H]1NC(=O)[C@H](CCCCN)NC(=O)[C@@H](CCCNC(N)=O)NC(=O)[C@H](Cc2ccc(O)cc2)NC(=O)[C@H](NC(=O)[C@@H](N)Cc2ccc(Cl)cc2)CSSC[C@@H](C(=O)N[C@H](Cc2ccc(O)cc2)C(N)=O)NC1=O
- IC50 (PathHunter β-Arrestin, antagonist mode) [3]: > 1000 nM
- IC50 (PathHunter β-Arrestin, antagonist mode) [4]: > 1000 nM
- IC50 (PathHunter β-Arrestin, antagonist mode) [5]: > 1000 nM
- IC50 (PathHunter β-Arrestin, antagonist mode) [1]: 34 nM
- IC50 (PathHunter β-Arrestin, antagonist mode) [2]: > 1000 nM

Binder: H-[Phe(4-Cl)][dC]Y[dAph(Asn)]KTC[dY]-NH2 (disulfide 2-7) [Compound 19: H-Cpa-cyclo[DCys-Tyr-D-4-(Asn)Aph-Lys-Thr-Cys]-DTyr-NH2]
- IC50 (PathHunter β-Arrestin, antagonist mode) [1]: > 1000 nM
- IC50 (PathHunter β-Arrestin, antagonist mode) [2]: > 1000 nM

Binder: H-[Phe(4-Cl)][dC]Y[dAph(Gln)]KTC[dY]-NH2 (disulfide 2-7) [Compound 21: H-Cpa-cyclo[DCys-Tyr-D-4-(Gln)Aph-Lys-Thr-Cys]-DTyr-NH2]
- IC50 (PathHunter β-Arrestin, antagonist mode) [1]: > 1000 nM
- IC50 (PathHunter β-Arrestin, antagonist mode) [2]: > 1000 nM

Binder: {3,3‑dimethylbutanoyl}-[Phe(4-Cl)][dC]Y[dPhe(4-CONH2)]K(Me)TC[dY]-NH2 (disulfide 2-7) [Compound 52: t-BuCH2(CO)-Cpa-cyclo[D-Cys-Tyr-D-Phe(4-carbamoyl)-Lys(Nε-Me)-Thr-Cys]-D-Tyr-NH2]
- IC50 (PathHunter β-Arrestin, antagonist mode) [1]: 1.73 nM

Binder: picolinoyl-[Phe(4-Cl)][dC]Y[dPhe(4-CONH2)]K(Me)TC[dY]-NH2 (disulfide 2-7) [Compound 53: 2-Pyridyl(CO)-Cpa-cyclo[D-Cys-Tyr-D-Phe(4-carbamoyl)-Lys(Nε-Me)-Thr-Cys]-D-Tyr-NH2]
- IC50 (PathHunter β-Arrestin, antagonist mode) [1]: 4.28 nM

Binder: H-[Phe(4-Cl)][dC]Y[dAph(2-(4-morpholinyl)ethyl)]KTC[dY]-NH2 (disulfide 2-7) [Compound 11: H-Cpa-cyclo[DCys-Tyr-D-4-(2-(4-morpholinyl)ethyl)Aph-Lys-Thr-Cys]-DTyr-NH2]
- IC50 (PathHunter β-Arrestin, antagonist mode) [1]: 243 nM
- IC50 (PathHunter β-Arrestin, antagonist mode) [2]: > 1000 nM

Binder: H-[Phe(4-Cl)][dC]Y[dAph(Glu)]KTC[dY]-NH2 (disulfide 2-7) [Compound 20: H-Cpa-cyclo[DCys-Tyr-D-4-(Glu)Aph-Lys-Thr-Cys]-DTyr-NH2]
- IC50 (PathHunter β-Arrestin, antagonist mode) [1]: 924 nM
- IC50 (PathHunter β-Arrestin, antagonist mode) [2]: > 1000 nM

B6: Compound 8: H-Cpa-cyclo[DCys-Tyr-D-4-(Gly)Aph-Lys-Thr-Cys]-DTyr-NH2 (peptide)
peptide: XXYXKTCX
HELM: PEPTIDE1{[N[C@@H](Cc1ccc(Cl)cc1)C(=O)[*:2]].[dC].Y.[O=C([C@@H](Cc1ccc(N[*:3])cc1)N[*:1])[*:2]].K.T.C.[dY].[am]}|PEPTIDE2{G}$PEPTIDE1,PEPTIDE2,4:R3-1:R2|PEPTIDE1,PEPTIDE1,2:R3-7:R3$$$V2.0
SMILES: C[C@@H](O)[C@@H]1NC(=O)[C@H](CCCCN)NC(=O)[C@@H](Cc2ccc(NC(=O)CN)cc2)NC(=O)[C@H](Cc2ccc(O)cc2)NC(=O)[C@H](NC(=O)[C@@H](N)Cc2ccc(Cl)cc2)CSSC[C@@H](C(=O)N[C@H](Cc2ccc(O)cc2)C(N)=O)NC1=O
- IC50 (PathHunter β-Arrestin, antagonist mode) [1]: 84 nM
- IC50 (PathHunter β-Arrestin, antagonist mode) [2]: > 1000 nM

Now from value to binder:

- IC50 (PathHunter β-Arrestin, antagonist mode) [1]: 458 nM
- IC50 (PathHunter β-Arrestin, antagonist mode) [2]: > 1000 nM
Binder: H-[Phe(4-Cl)][dC]Y[dAph(Val)]KTC[dY]-NH2 (disulfide 2-7) [Compound 23: H-Cpa-cyclo[DCys-Tyr-D-4-(Val)Aph-Lys-Thr-Cys]-DTyr-NH2]

- IC50 (PathHunter β-Arrestin, antagonist mode) [1]: 104 nM
- IC50 (PathHunter β-Arrestin, antagonist mode) [2]: > 1000 nM
B1: Compound 9: H-Cpa-cyclo[DCys-Tyr-D-4-(Gly-Ac)Aph-Lys-Thr-Cys]-DTyr-NH2 (peptide)
peptide: XXYXKTCX
HELM: PEPTIDE1{[N[C@@H](Cc1ccc(Cl)cc1)C(=O)[*:2]].[dC].Y.[O=C([C@@H](Cc1ccc(N[*:3])cc1)N[*:1])[*:2]].K.T.C.[dY].[am]}|PEPTIDE2{[ac].G}$PEPTIDE1,PEPTIDE2,4:R3-2:R2|PEPTIDE1,PEPTIDE1,2:R3-7:R3$$$V2.0
SMILES: CC(=O)NCC(=O)Nc1ccc(C[C@H]2NC(=O)[C@H](Cc3ccc(O)cc3)NC(=O)[C@H](NC(=O)[C@@H](N)Cc3ccc(Cl)cc3)CSSC[C@@H](C(=O)N[C@H](Cc3ccc(O)cc3)C(N)=O)NC(=O)[C@H]([C@@H](C)O)NC(=O)[C@H](CCCCN)NC2=O)cc1

- IC50 (PathHunter β-Arrestin, antagonist mode) [1]: > 1000 nM
- IC50 (PathHunter β-Arrestin, antagonist mode) [2]: > 1000 nM
Binder: H-[Phe(4-Cl)][dC]Y[dAph(Pro)]KTC[dY]-NH2 (disulfide 2-7) [Compound 10: H-Cpa-cyclo[DCys-Tyr-D-4-(Pro)Aph-Lys-Thr-Cys]-DTyr-NH2]

- IC50 (PathHunter β-Arrestin, antagonist mode) [1]: 166 nM
- IC50 (PathHunter β-Arrestin, antagonist mode) [2]: > 1000 nM
Binder: H-[Phe(4-Cl)][dC]Y[dPhe(4-acetamidomethyl)]KTC[dY]-NH2 (disulfide 2-7) [Compound 6: H-Cpa-cyclo[DCys-Tyr-D-(4-acetamidomethyl)Phe-Lys-Thr-Cys]-DTyr-NH2]

- IC50 (PathHunter β-Arrestin, antagonist mode) [1]: 334 nM
- IC50 (PathHunter β-Arrestin, antagonist mode) [2]: > 1000 nM
Binder: H-[Phe(4-Cl)][dC]Y[dTyr(O-2-(4-morpholinyl)ethyl)]KTC[dY]-NH2 (disulfide 2-7) [Compound 13: H-Cpa-cyclo[DCys-Tyr-D-(2-(4-morpholinyl)ethyl)Tyr-Lys-Thr-Cys]-DTyr-NH2]

- IC50 (PathHunter β-Arrestin, antagonist mode) [1]: > 1000 nM
- IC50 (PathHunter β-Arrestin, antagonist mode) [2]: > 1000 nM
Binder: H-[Phe(4-Cl)][dC]Y[dAph(Lys)]KTC[dY]-NH2 (disulfide 2-7) [Compound 17: H-Cpa-cyclo[DCys-Tyr-D-4-(Lys)Aph-Lys-Thr-Cys]-DTyr-NH2]

- IC50 (PathHunter β-Arrestin, antagonist mode) [3]: > 1000 nM
- IC50 (PathHunter β-Arrestin, antagonist mode) [4]: > 1000 nM
- IC50 (PathHunter β-Arrestin, antagonist mode) [5]: > 1000 nM
- IC50 (PathHunter β-Arrestin, antagonist mode) [1]: 31 nM
- IC50 (PathHunter β-Arrestin, antagonist mode) [2]: > 1000 nM
B2: Compound 7: H-Cpa-cyclo[DCys-Tyr-D-(4-ureidomethyl)Phe-Lys-Thr-Cys]-DTyr-NH2 (peptide)
peptide: XXYXKTCX
HELM: PEPTIDE1{[N[C@@H](Cc1ccc(Cl)cc1)C(=O)[*:2]].[dC].Y.[NC(=O)NCc1ccc(C[C@@H](N[*:1])C(=O)[*:2])cc1].K.T.C.[dY].[am]}$PEPTIDE1,PEPTIDE1,2:R3-7:R3$$$V2.0
SMILES: C[C@@H](O)[C@@H]1NC(=O)[C@H](CCCCN)NC(=O)[C@@H](Cc2ccc(CNC(N)=O)cc2)NC(=O)[C@H](Cc2ccc(O)cc2)NC(=O)[C@H](NC(=O)[C@@H](N)Cc2ccc(Cl)cc2)CSSC[C@@H](C(=O)N[C@H](Cc2ccc(O)cc2)C(N)=O)NC1=O

- IC50 (PathHunter β-Arrestin, antagonist mode) [1]: 181 nM
- IC50 (PathHunter β-Arrestin, antagonist mode) [2]: > 1000 nM
Binder: H-[Phe(4-Cl)][dC]Y[dHoCit]KTC[dY]-NH2 (disulfide 2-7) [Compound 2: H-Cpa-cyclo[DCys-Tyr-DHoCit-Lys-Thr-Cys]-DTyr-NH2]

- IC50 (PathHunter β-Arrestin, antagonist mode) [3]: > 1000 nM
- IC50 (PathHunter β-Arrestin, antagonist mode) [4]: > 1000 nM
- IC50 (PathHunter β-Arrestin, antagonist mode) [5]: > 1000 nM
- IC50 (PathHunter β-Arrestin, antagonist mode) [1]: 17 nM
- IC50 (PathHunter β-Arrestin, antagonist mode) [2]: > 1000 nM
B4: Compound 4: H-Cpa-cyclo[DCys-Tyr-D-(4-carbamoyl)Phe-Lys-Thr-Cys]-DTyr-NH2 (peptide)
peptide: XXYXKTCX
HELM: PEPTIDE1{[N[C@@H](Cc1ccc(Cl)cc1)C(=O)[*:2]].[dC].Y.[NC(=O)c1ccc(C[C@@H](N[*:1])C(=O)[*:2])cc1].K.T.C.[dY].[am]}$PEPTIDE1,PEPTIDE1,2:R3-7:R3$$$V2.0
SMILES: C[C@@H](O)[C@@H]1NC(=O)[C@H](CCCCN)NC(=O)[C@@H](Cc2ccc(C(N)=O)cc2)NC(=O)[C@H](Cc2ccc(O)cc2)NC(=O)[C@H](NC(=O)[C@@H](N)Cc2ccc(Cl)cc2)CSSC[C@@H](C(=O)N[C@H](Cc2ccc(O)cc2)C(N)=O)NC1=O

- IC50 (PathHunter β-Arrestin, antagonist mode) [1]: 251 nM
- IC50 (PathHunter β-Arrestin, antagonist mode) [2]: > 1000 nM
B5: Compound 3: H-Cpa-cyclo[DCys-Tyr-D-(Nε-nicotinoyl)Lys-Lys-Thr-Cys]-DTyr-NH2 (peptide)
peptide: H-[Phe(4-Cl)][dC]Y[dK](Nicotinoyl)KTC[dY]-NH2
modifications: disulfide 2-7
SMILES: C[C@@H](O)[C@@H]1NC(=O)[C@H](CCCCN)NC(=O)[C@@H](CCCCNC(=O)c2cccnc2)NC(=O)[C@H](Cc2ccc(O)cc2)NC(=O)[C@H](NC(=O)[C@@H](N)Cc2ccc(Cl)cc2)CSSC[C@@H](C(=O)N[C@H](Cc2ccc(O)cc2)C(N)=O)NC1=O

- IC50 (PathHunter β-Arrestin, antagonist mode) [1]: 213 nM
- IC50 (PathHunter β-Arrestin, antagonist mode) [2]: > 1000 nM
Binder: H-[Phe(4-Cl)][dC]Y[dPhe(4-aminomethyl)]KTC[dY]-NH2 (disulfide 2-7) [Compound 5: H-Cpa-cyclo[DCys-Tyr-D-(4-aminomethyl)Phe-Lys-Thr-Cys]-DTyr-NH2]

- IC50 (PathHunter β-Arrestin, antagonist mode) [1]: 234 nM
- IC50 (PathHunter β-Arrestin, antagonist mode) [2]: > 1000 nM
Binder: H-[Phe(4-Cl)][dC]Y[dAph(Ser)]KTC[dY]-NH2 (disulfide 2-7) [Compound 16: H-Cpa-cyclo[DCys-Tyr-D-4-(Ser)Aph-Lys-Thr-Cys]-DTyr-NH2]
